Source: patent US20260241035A1, “FUNCTIONAL NUCLEIC ACID MOLECULE AND METHOD” (THE UNIVERSITY COURT OF THE UNIVERSITY OF EDINBURGH, priority 2022, published 2026)

B1: CSE074: clustered SOX dimer motif enhancer, SEQ ID NO: 51 (nucleic acid)
DNA: ATACATTTTAGCACCAAACACAATTTAATAACAGGGCACAGAGGCCGCAAAGCCTCCTGATTCTGTTCCATTACTAATTTATCAGGGGCTGAAAGCAACCAAACTTAGGATCCCAGGCAGACAATGGAGCCTTTGAGGGGCAAGGGAAGCATCATTTAAAAGGAAAGCATTACCATTCTAAAATAATGGCAAAGCACATGAACTGAGTGCTCTGAAAGAGAGCACTACAAAAAAGGTATTCTCAGCTTAAATGCCCCAAACACAAAAGCTTTTAGTTGGGACTTAGACGGGAAAAAGAAAATAGCTCCCAATAAATTGGTTTTACCAGTATCCTTTTGTGTGTGCTGGTGCCAAGGGGGCGAGGGTACAGGCAAAGCGTGATTTTCCAAAACCTAGCTGAATTATGTTTCTTCTTTAGAACAAAACCCAACATTTTGCTAATGAGGATAAAGACAGTAAAACTGATATTCCTGTGCTATTACTAACTTGG
B2: ID0876: enhancer fragment, SEQ ID NO: 8 (nucleic acid)
DNA: GAGCAGGCAGTCATTTGGTTCCCTTCTCTGAATGCATTGGCTCTGATCCACGGCGCCTCAGGAAGTGAAAGGGAGCAGGCAGTGAGGCCAAGCCATGAATGTTGGGCCCTTTTCTTAGAAAACAAAGGGTTCACTTTAGGCTAGGAGGAAACATCCGGGG
B3: ID2339: enhancer fragment, SEQ ID NO: 9 (nucleic acid)
DNA: GTCGGCGGAACTGAGTCTCCTTTGTGGAGCCCCTCATTTGCATGATAAACCCCGGGGACAAAGTGTGTTCTTGTTACTTGGACTGTTTCTTGGAAACTGCTGCTACCTGGAGCGAGTGAACACAGGGCAAGTATTCTCGCCCACAGCAACGTGTCATTGA
B4: CSE075: clustered SOX dimer motif enhancer, SEQ ID NO: 49 (nucleic acid)
DNA: ATAAGCCCTTTAAATTAAATCTTTATGCAGATTCTATTTTATACTCCAAACTTTTCATGGAGCCTTGTGTAATTCTGATGTGTAAACCAACAAACAGAGAGGCTCTGTGTATGGAGTAGCTGGTTTGGATACCAGCTGGCTTGGCTGTGCGCCTTTCTAATGGTAATGAAGTCACACAGCTGCTAGGACAATCAGCTGGAGTTCAGATTGTCACTAGCTAAATGGATATCCATTGACTAGCTTCTTATCCGGACTCATTAAAGTTTAGTATTGACAAATAGTGGCTGGAGGTTTACAACTAAGAGGCATGTAGAAATGAACTTGTTGACTATTTTTTCCCTATAGCTTTTGCTTTGTGATTCACAGAATGTCATTCATC
B5: CSE054: clustered SOX dimer motif enhancer, SEQ ID NO: 50 (nucleic acid)
DNA: GCCAACAACTCATATAGTGGAGGCTTGAGCACACCATGCTTATTCCCAGAGTTCCAATGCTCTGCTTTTGAACCATTACCATGCCTTTCAGCAGCACTGTCAACAGAGCTCAGAGAAGGTCTTGAACTCCAGAGAATGAATGAGATATGCCAAATGAAGCATAATTACTTTATTGACGTCATTCAGCTTTCAACTCACATTTAATGAGAAAGCTTCTACTGCTTGAAACAGTGGGCCATTTGTAGCACATTATGCAAATGATAAGACTAATCTTTTGCATTATACATAAGAGCTGCTTATTGTGCATTAACTAATTTATCTGACTAGGAAGGGGCTATGAATGCTGATTTTTATTAAGCTCTTCATTAAGTGAAAATGTAGGCATGGCAAGTGCATAT
B6: CSE061: clustered SOX dimer motif enhancer, SEQ ID NO: 48 (nucleic acid)
DNA: GAACAGCACTTAAATATTAATAGCATCACTGGGAAAACACGACAGCTATTTCCCTGTTTTCTGCAGCTCAATGAAGAGTTGTTCAGTGCAGACCCCAGTGCTCTTGCCTCATGAATGGACGTGATTGTGGGGACATCATCTCCTACTAAGGCAAAACGTGACACTGAGAACAAAGGCTGGTTTTTAGCCTGATGTGATGAGCTCACCCCAGTGCCCATGTGGGGACTTTGAAGCTCGTCCAGGTGCCAGTTTTCTGTGTATATGACATTCTTGGTTGGGGAGGGTGTGGACTGGGCAGCAGGCTTT

Test system: GSC7 cells
Assay: Nano-Glo Dual-Luciferase Reporter (Nanoglo DLR) assay of enhancer activity, fold change to mCMV
Type: cell-based, human
Details: expression fold change of the individual enhancer compared to mCMV
Excerpt: We chose an arrayed library format, with 160 bp enhancer fragments individually cloned into separate plasmids and arrayed in 96 well plates. These 160 bp were synthesized as a single pool of oligos, then randomly cloned into the plasmid and isolated. 20 bp×2 were needed for PCR amplification of the pool and so a library of 200 bp fragments was synthesized (Twist Biosciences). To meet our oligo synthesis strategy, ChIP-seq peaks expressed by GSCs were merged into a single oligo. This oligonucleotide pool was PCR-amplified (using limited cycles to reduce bias and ‘jackpot’ products meaning products which are easier to amplify will overtake the oligonucleotide pool) and cloned into the expression vector by an efficient Golden Gate reaction. 4579 individual plasmids were then randomly picked, isolated and plated as an arrayed plasmid DNA library on 96 well plates (×48). The bacterial colony picking and production of plasmid minipreps were supported by the Edinburgh Genome Foundry (S. Rosser). This library was then screened using the optimised Nanoglo DLR assay (Nano-Glo Dual-Luciferase Reporter Assay, Promega) in 384 well format. Each plate was transiently transfected together with PGK-FFLuc in a 1:10 ratio into GSC7 cells. 2 days later a Nanoglo DLR assay was performed and assayed on a plate reader.
Cells were seeded in 384 well plates using a multidrop and transfected the following day using the CyBio Felix. Two days later the experiment was terminated with a Nanoglo DLR assay and all hits with a fold change to mCMV greater than 10 were Sanger sequenced and mapped back to the genome.
Cells were seeded at the required density. The following day the transfection was carried out. For this the Plus reagent and Lipofectamine LTX (Life Technologies, 15338030) were each diluted in half the volume of Opti-MEM I Reduced-Serum Medium (further referred to as Optimem) (Life Technologies, 31985062). Following this step, the Plus reagent/Optimem premix was added to all DNA samples followed by the Lipofectamine LTX/Optimem premix. The transfection mix was incubated for 5 min at room temperature and then carefully dropped on the cells. Generally, no media change was carried out. Cells were analysed two days following transfection.
This assay consists of two steps. The transfection was carried out using a normalisation plasmid PGK-Firefly-Luciferase (Promega, E5011) that was transfected in a 1/10 ratio with the plasmid of interest. First, the Firefly Luciferase activity is measured which allows to normalise to transfection efficiency. In a second step, the activity of Nanoluc is determined which is the readout of the plasmid of interest. Cells were washed 3× with PBS and 20 μl was left in the 96 well plate after the final wash (25 μl in 384 well). Oneglo buffer was added and the plate was shaken for 5 min at 480 rpm to allow cell lysis. 20 μl cell lysate in 96 well format or 25 μl cell lysate in 384 well format was then transferred into the corresponding opaque white plate and luminescence was measured at for 0.1 s per well using the Ensight Multimode Plate Reader. For the following Nanoluc reaction in a 96 well format 2 μl cell lysate was transferred into an opaque white plate containing 40 μl PBS, and 20 μl Stopglo buffer, supplemented with substrate, was added to each well. In a 384 well format 20 μl Stopglo buffer containing substrate were added on top of the undiluted cell lysate. The plate was shaken again for 5 min at 480 rpm to quench the firefly luciferase reaction and ensure good mixing. Nanoluc activity was measured for 0.1 s per well, again using Ensight Multimode Plate Reader.
Data obtained by the Nanoluc reaction was normalised to Firefly reaction to account for well-to-well variability of transfection efficiency. Normalised data were used to calculate the fold change to the empty vector control mCMV.

Molecule	Fold change (Median) [fold]
B1	250.6
B2	91.1
B3	79.6
B4	58.1
B5	65.7
B6	58.3
